The target of data set [1] is T1, GST-URL1 (ROC8) (Oryza sativa L., UniProt Q69T58 1-710).
T1 sequence: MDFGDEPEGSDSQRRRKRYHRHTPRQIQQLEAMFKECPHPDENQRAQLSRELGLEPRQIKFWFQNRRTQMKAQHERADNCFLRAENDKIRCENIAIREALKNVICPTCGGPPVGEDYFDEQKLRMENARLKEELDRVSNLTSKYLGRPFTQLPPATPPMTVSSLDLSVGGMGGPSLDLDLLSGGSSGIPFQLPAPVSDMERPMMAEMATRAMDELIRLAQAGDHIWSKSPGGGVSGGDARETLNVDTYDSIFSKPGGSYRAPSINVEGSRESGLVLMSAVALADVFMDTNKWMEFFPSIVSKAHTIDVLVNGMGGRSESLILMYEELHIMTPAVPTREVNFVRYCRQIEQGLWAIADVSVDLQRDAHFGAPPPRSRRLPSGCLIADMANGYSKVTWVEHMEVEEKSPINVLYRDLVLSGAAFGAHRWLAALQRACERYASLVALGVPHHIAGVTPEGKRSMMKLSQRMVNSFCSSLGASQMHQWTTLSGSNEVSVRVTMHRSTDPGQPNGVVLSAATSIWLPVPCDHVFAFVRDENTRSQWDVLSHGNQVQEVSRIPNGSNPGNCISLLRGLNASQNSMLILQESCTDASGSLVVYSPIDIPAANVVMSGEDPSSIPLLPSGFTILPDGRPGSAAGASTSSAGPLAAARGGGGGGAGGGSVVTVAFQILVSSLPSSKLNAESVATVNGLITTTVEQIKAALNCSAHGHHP
The data set can be described thus: competition; 100-, 300-, 1000-fold excess vs labeled L1-box I probe; LightShift Chemiluminescent EMSA Kit; buffer, salt, pH and temperature not stated. The following applies: protein: recombinant; tags: N-terminal GST (pCold-GST); chain copies: 2; blunt.

Data set [2] deals with T1, GST-URL1 (ROC8). In words: EMSA; LightShift Chemiluminescent EMSA Kit; buffer, salt, pH and temperature not stated. The following applies: protein: recombinant; tags: N-terminal GST (pCold-GST); chain copies: 2; label: 3' biotin; blunt.
Data set [3] deals with T1, GST-URL1 (ROC8). The data set can be described thus: competition; 100-, 300-, 1000-fold excess vs labeled L1-box II probe; LightShift Chemiluminescent EMSA Kit; buffer, salt, pH and temperature not stated. Particulars: protein: recombinant; tags: N-terminal GST (pCold-GST); chain copies: 2; blunt.

B1: ACL1 L1-box I unlabeled competitor (dsDNA)
DNA 1: CCGACTAATGGCAATATATACGTGCAAAGATACATTTATATACCATATCCTGTACTAAGCAATAACCTA
DNA 2: TAGGTTATTGCTTAGTACAGGATATGGTATATAAATGTATCTTTGCACGTATATATTGCCATTAGTCGG
Regarding B1, the binding result in data set [1] is recorded as “binds”.

B2: mACL1 L1-box I (L1 box deleted) (dsDNA)
DNA 1: ACCGACTAATGGCAATATAAAGATATACCATATCCTGTACTAAGCAATAACCTA
DNA 2: TAGGTTATTGCTTAGTACAGGATATGGTATATCTTTATATTGCCATTAGTCGGT
For the molecule B2, the binding result in data set [2] is “no binding”.

B3: mACL1 L1-box II (L1 box deleted) (dsDNA)
DNA 1: TTATCATAAAAGAAACTATAATATTAACTTACATTACTTTAAGGCAA
DNA 2: TTGCCTTAAAGTAATGTAAGTTAATATTATAGTTTCTTTTATGATAA
For the molecule B3, the binding result in data set [2] was “no binding”.

B4: ACL1 L1-box II unlabeled competitor (dsDNA)
DNA 1: TTATCATAAAAGAAACTATAATATTAACTTATACATTTACATATTTATACTAAATTTTTAAATAAGGCAA
DNA 2: TTGCCTTATTTAAAAATTTAGTATAAATATGTAAATGTATAAGTTAATATTATAGTTTCTTTTATGATAA
For the molecule B4, in data set [3], the binding result is “binds”.

The values are drawn from article PMC8133684, “The URL1–ROC5–TPL2 transcriptional repressor complex represses the ACL1 gene to modulate leaf rolling in rice”.
